The series deals with the molecule itself. Put plainly: SDS-PAGE with immunoblot (oligomer resistant to SDS); purified FoF1 on 16% polyacrylamide gels, immunoblot with anti-c-subunit antibodies; the c subunit runs as a ring above the α subunit.

B1: c subunit of FoF1 ATP synthase of Synechocystis sp. PCC 6803 (natural protein, Synechocystis sp. PCC 6803 (endogenous), UniProt P27182 1-81, looked up)
chain: MDSTVAAASVIAAALAVGLGAIGPGIGQGNASGQAVSGIARQPEAEGKIRGTLLLTLAFMESLTIYGLVIALVLLFANPFA
notes: ATP synthase c subunit, Synechocystis sp; Forms the c-ring; also called ssl2615; c-ring; source: endogenous, Synechocystis sp
With B1, the binding result was “binds”.

Source of the values: PMC8390522, “The phototroph-specific β-hairpin structure of the γ subunit of FoF1-ATP synthase is important for efficient ATP synthesis of cyanobacteria” (The Journal of Biological Chemistry, 2021).
